Assay results as given in a protein production outcome set (Wang et al. 2014).

Experiment: label from the status in PepcDB records

Sequence | protein production
MAPDQAKPAPFRDQFHRVLGVIRRGKLLILACVLLVVAPTIVFLQQATPRYTANAAVLIEAPDATDSLLDRSDMSRTRLNDLMITTEAEVLGSTPLARRVIDKLGLDQDPEFNARLRKPTAFQRVTFWLNPINWIPDGWRAGRKDEATMTPKVREELQRARVTATFLGRLSVKPKRRSFVIDLEFTATSREKSALIVNTLADLYVFDRLEAGFDETKRVNEWLAQRLESLRGDVALAEAAVETYRAENGLRPVGERQGTVANQQLTELNSRLVLARADLAQKQARLDQVRSLSRGGGVATASDVLQSSLIQQLRQREAEVRSALSEAEKTYGERHPKIIGMRADLGQLQSSIGGEIGKIASSAEGDVEIAAIGVRTLEREIVGLRQEGDVQGGAIVRLRELERQADSSRSLYEAFLSRFKRNAEQEQIQRANARLLSPADIPASPSYPRKIPILLVMMVVGFGLGIGLVFLVEGLDGTVHSTEELEALVGLPPLAVIPVVRGRGGGAVVLARPRAPIAHAFRNLRTALTLNGEETRRRIVMVSSSVPKEGKSFVSLGLALTYARAGERVLLIDADVHRSSLAATIGIDGTRGLAQVLRGEATLDQVVTRPPGMDLDFLAAGEASAQEELFDASTLGALLSEPASRYDRIIIDTAPVLAVADARIVAGVADQVIYLVRWGSTQQTAVRNGIKLLRDVRAPLAGMVLSQVDVRRHAVYGYGDYGASYGRYQEYYAE | failed
MAPEMNNKLSYGEKKRAYVTFLAGTGDYVKGVVGLAKGLRKTKSKYPLVVAVLPDVPADHRRQLLDQGCVIKEIQPVYPPDNQTQFAMAYYVLNYSKLRIWKFVEYSKLIYLDGDIQVFENIDHLFDLPDGNFYAVKDCFCEKTWSHTPQYKIGYCQQCPDKVTWPESELGPKPPLYFNAGMFVYEPSLPTYYNLLETLKVVPPTPFAEQDFLNMYFKDIYKPIPPVYNLVLAMLWRHPENIELNEAKVVHYCAAGAKPWRFTGQEGNMEREDIKMLVEKWWDIYNDESLDYKNFNVHCGQKEDVHRKPKTLPQFFTDLSEADVLQCAKAPSAA | failed
MAPHSLKKNYRCSRSLKQFYGGGPFIVSSDGSFIACACGDVINIVDSTDSSVKSTIEGESDTLTALALSPDDKLLFSAGHSRQIRVWDLETLKCIRSWKGHEGPVMGMACHASGGLLATAGADRKVLVWDVDGGFCTHYFRGHKGVVSSILFHPDSNKNILISGSDDATVRVWDLNAKNTEKKCLAIMEKHFSAVTSIALSEDGLTLFSAGRDKVVNLWDLHDYSCKATVATYEVLEAVTTVSSGTPFASFVASLDQKKSKKKESDSQATYFITVGERGVVRIWKSEGSICLYEQKSSDITVSSDDEESKRGFTAAAMLPSDHGLLCVTADQQFFFYSVVENVEETELVLSKRLVGYNEEIADMKFLGDEEQFLAVATNLEEVRVYDVATMSCSYVLAGHKEVVLSLDTCVSSSGNVLIVTGSKDKTVRLWNATSKSCIGVGTGHNGDILAVAFAKKSFSFFVSGSGDRTLKVWSLDGISEDSEEPINLKTRSVVAAHDKDINSVAVARNDSLVCTGSEDRTASIWRLPDLVHVVTLKGHKRRIFSVEFSTVDQCVMTASGDKTVKIWAISDGSCLKTFEGHTSSVLRASFITDGTQFVSCGADGLLKLWNVNTSECIATYDQHEDKVWALAVGKKTEMIATGGGDAVINLWHDSTASDKEDDFRKEEEAILRGQELENAVLDAEYTKAIRLAFELCRPHKVFELFSGLCRKRDSDEQIVKALQGLEKEEFRLLFEYVREWNTKPKLCHIAQFVLYKTFNILPPTEIVQVKGIGELLEGLIPYSQRHFSRIDRFVRSSFLLDYTLGEMSVIDPETVETEYPKDEKKKEKDVIAAMEQDTDELKQETPSRKRKSQKSKGKSNKKRLIAEAQGSVIAV | failed
MAPKAGKKPAEKKPAEKAPAEEEKVAEKAPAEKKPKAGKKLPKEAVTGGVEKKKKRVKKSTETYKIYIFKVLKQVHPDIGISSKAMGIMNSFINDIFEKLAQEASKLARYNKKPTITSREIQTAVRLVLPGELAKHAVSEGTKAVTKFTSS | failed
MAPKDITFVERCYKYIDMNKNNWSPYTVTSTKSWVKNYIEPFFKNLKLTEVNPSSVQAFVNYNFNNSTFTSAKVRYSFLSSVIREAYRLREIQENSCDFIKLPLEHHHHHH | not failed
